Experiments:
[1] = molecular target: T1, hFLAG-EGF34+NRR-His6 (101V), the human Notch1 NRR immunogen (Notch1 V1307-Q1733) (human, UniProt P46531 1307-1733); assay: SPR (BIAcore-3000), IgG captured by anti-human IgG, NRR1-ECD injected 3.9-500 nM, 25 C
T1 construct: also called hNotch1 NRR; human NRR1
Method: (§1) To further characterize the binding affinity and binding kinetics of the anti-Notch1 NRR Mabs, surface plasmon resonance (SRP) measurement with a BIAcore™-3000 was used (BIAcore, Inc., Piscataway, N.J.). Briefly, carboxymethylated dextran biosensor chips (CM5, BIAcore Inc.) were activated with N-ethyl-N′-(3-dimethylaminopropyl)-carbodiimide hydrochloride (EDC) and N-hydroxysuccinimide (NHS) according to the supplier's instructions. Rabbit anti human antibody (Pierce) was diluted with 100 mM sodium acetate, pH 4.8, into 20 μg/ml before injection at a flow rate of 5 μl/minute to achieve approximately 3000 response units (RU) of coupled antibody. Next, 1M ethanolamine was injected to block unreacted groups. Anti-NRR1 mab (formatted as a full-length IgG) was captured by rabbit anti-human IgG coated on the chips to achieve approximately 200 response units (RU). For kinetics measurements, two-fold serial dilutions of human NRR1-ECD or murine NRR1-ECD proteins (3.9 nM to 500 nM) were injected in PBT buffer (PBS with 0.05% Tween 20) at 25° C. with a flow rate of 30 μl/min. Association rates (kₒₙ) and dissociation rates (koff) were calculated using a simple one-to-one Langmuir binding model (BIAcore Evaluation Software version 3.2). The equilibrium dissociation constant (KD) was calculated as the ratio koff/kₒₙ.

[2] = molecular target: T2, mFLAG-EGF34+NRR-His6, the mouse Notch1 NRR immunogen (Notch1 V1307-Q1723) (mouse, UniProt Q01705 1307-1723); assay: as above
T2 construct: the rest carries an N-terminal FLAG tag and a C-terminal His tag; also called mNotch1 NRR; murine NRR1
T2 sequence (Q01705 other isoform, or with tags, fused parts or gaps): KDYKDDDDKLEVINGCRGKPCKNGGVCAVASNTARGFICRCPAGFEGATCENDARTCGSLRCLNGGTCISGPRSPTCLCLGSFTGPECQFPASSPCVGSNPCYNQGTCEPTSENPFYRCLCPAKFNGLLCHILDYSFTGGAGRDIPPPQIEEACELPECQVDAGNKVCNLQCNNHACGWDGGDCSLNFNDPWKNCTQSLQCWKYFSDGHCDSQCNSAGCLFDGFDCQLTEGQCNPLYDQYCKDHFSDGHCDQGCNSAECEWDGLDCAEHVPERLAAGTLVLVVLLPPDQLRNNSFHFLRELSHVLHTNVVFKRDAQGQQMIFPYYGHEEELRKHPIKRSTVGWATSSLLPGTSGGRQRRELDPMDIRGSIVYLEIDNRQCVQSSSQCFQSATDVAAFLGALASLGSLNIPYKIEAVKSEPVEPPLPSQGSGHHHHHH
Method: as §1

[3] = molecular target: mEGF34+NRR-L1597H-FLAG-TEV-Fc (mouse) (UniProt Q01705); assay: ELISA, target coated on the plate at 1 ug/ml, IgG titrated in 3-fold steps, detected with peroxidase anti-human Fab; A630
Chain of mEGF34+NRR-L1597H-FLAG-TEV-Fc (mouse) (Q01705 1307-1723, stated change not applied): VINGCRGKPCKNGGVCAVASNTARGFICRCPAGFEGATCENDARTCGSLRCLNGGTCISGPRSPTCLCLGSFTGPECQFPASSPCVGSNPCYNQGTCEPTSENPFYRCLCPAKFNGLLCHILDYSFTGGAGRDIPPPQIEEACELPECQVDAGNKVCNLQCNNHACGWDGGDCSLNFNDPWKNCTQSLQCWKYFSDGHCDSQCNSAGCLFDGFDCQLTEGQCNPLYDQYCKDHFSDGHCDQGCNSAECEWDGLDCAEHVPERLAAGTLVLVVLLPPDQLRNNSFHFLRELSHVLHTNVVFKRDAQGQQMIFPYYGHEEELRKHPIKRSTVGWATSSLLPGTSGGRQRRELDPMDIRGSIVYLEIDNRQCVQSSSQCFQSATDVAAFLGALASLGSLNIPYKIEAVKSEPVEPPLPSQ

[4] = molecular target: T1, hFLAG-EGF34+NRR-His6 (101V), the human …; assay: as above
Method: (§2) 1 μg/ml of proteins in PBS, pH 7.4, were coated on ELISA plates (Nunc Maxisorp) at 4° C. overnight. Plates were blocked with Casein blocker in PBS (phosphate buffered saline; Pierce) for one hour at room temperature. Serial 3-fold dilutions of anti Notch1 NRR IgGs or irrelevant IgG in PBST buffer (PBT buffer (PBS+0.05% (v/v) Tween 20) with 0.5% (w/v) BSA) were added to the plates and incubated for one hour at room temperature. The plates were then washed with PBST and bound antibodies were detected with peroxidase-conjugated goat anti human Fab specific IgG (Sigma). TMB substrate (3,3′,5,5′-etramethylbenzidine) was used and absorbance at 650 nm was read using a standard ELISA plate reader. Absorbance was plotted against concentrations of IgGs using KaleidaGraph (Synergy Software).

[5] = molecular target: T2, mFLAG-EGF34+NRR-His6, the mouse Notch1 …; assay: as above
Method: as §2

hFLAG-NRR-His6 (102V) = molecular target: T3, hFLAG-NRR-His6 (102V) (human, UniProt P46531 1447-1733); assay: as above
T3 construct: no EGF-like repeats; not shown: FLAG tag; thrombin cleavage site and HIS tag
T3 sequence (P46531 1447-1733): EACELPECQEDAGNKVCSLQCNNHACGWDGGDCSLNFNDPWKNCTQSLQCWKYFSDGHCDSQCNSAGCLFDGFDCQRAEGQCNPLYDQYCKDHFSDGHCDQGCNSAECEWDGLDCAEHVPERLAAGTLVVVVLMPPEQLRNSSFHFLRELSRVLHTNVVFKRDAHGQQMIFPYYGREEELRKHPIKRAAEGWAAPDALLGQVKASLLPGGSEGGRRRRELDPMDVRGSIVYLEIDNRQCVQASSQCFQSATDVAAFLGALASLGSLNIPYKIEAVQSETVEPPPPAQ
Method: as §2

[6] = molecular target: T1, hFLAG-EGF34+NRR-His6 (101V), the human …; assay: competitive phage-binding ELISA: phage-displayed Fab, soluble NRR1 titrated against coated NRR1
Method: (§3) To identify the phage antibodies that bound to both human and murine Notch1 NRR, all unique clones were tested for binding to human and murine Notch1 by ELISA. The affinities of phage antibodies were ranked using single spot competition ELISA as described below in this Example. The phage antibody IC50 values were further determined using competitive phage-binding ELISA essentially described in Lee, C. V., et al. (2004) J Mol Biol 340, 1073-93. Briefly, NUNC 96 well Maxisorp immunoplates were coated overnight at 4° C. with 1 μg/ml human NRR1 or murine NRR1, and were blocked for 1 hour at room temperature with blocking buffer PBST (PBS and 1% BSA and 0.05% Tween 20). Phage was mixed with serial dilution of human or murine NRR1 at room temperature for 1 hour before the mixture was added to human and murine NRR1 coated plate. Bound phage were detected with anti-M13 HRP conjugates, developed with TMB substrate for approximately 5 minutes, quenched with 1M H₃PO₄, and read spectrophotometrically at 450 nm.

[7] = molecular target: T2, mFLAG-EGF34+NRR-His6, the mouse Notch1 …; assay: as above
Method: as §3

T1 sequence (P46531 other isoform, or with tags, fused parts or gaps limits assumed): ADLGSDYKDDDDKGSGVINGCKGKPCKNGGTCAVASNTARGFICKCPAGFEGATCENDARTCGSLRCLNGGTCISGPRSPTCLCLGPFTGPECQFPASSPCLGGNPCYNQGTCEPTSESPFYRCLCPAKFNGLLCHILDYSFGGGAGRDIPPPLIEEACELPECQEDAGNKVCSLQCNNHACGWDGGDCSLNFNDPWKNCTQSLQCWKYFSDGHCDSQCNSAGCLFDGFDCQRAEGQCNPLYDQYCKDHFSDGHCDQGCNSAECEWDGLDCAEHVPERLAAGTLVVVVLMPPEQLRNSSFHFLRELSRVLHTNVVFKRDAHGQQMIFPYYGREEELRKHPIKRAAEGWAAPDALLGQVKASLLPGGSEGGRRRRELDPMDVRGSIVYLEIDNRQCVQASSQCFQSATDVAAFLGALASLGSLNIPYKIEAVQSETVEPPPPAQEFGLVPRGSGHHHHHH

Binder | Kd [1] [nM] | koff [1] [s⁻¹] | kon [1] [M⁻¹ s⁻¹] | Kd [2] [nM] | koff [2] [s⁻¹] | kon [2] [M⁻¹ s⁻¹] | EC50 (read off the curve) [3] [µg/mL] | EC50 (read off the curve) [4] [µg/mL] | EC50 (read off the curve) [5] [µg/mL] | EC50 (read off the curve) (hFLAG-NRR-His6 (102V)) [µg/mL] | IC50 [6] [nM] | IC50 [7] [nM]
Antibody A-1 (antibody, V domains shown, also called Antibody A-1-hIgG1) VH: EVQLVESGGGLVQPGGSLRLSCAASGFTFSSYWIHWVRQAPGKGLEWVARINPPNGSAHYADSVKGRFTISADTSKNTAYLQMNSLRAEDTAVYYCARGSGFRWVMDYWGQGTLVTVSS VL: DIQMTQSPSSLSASVGDRVTITCRASQDVSTAVAWYQQKPDGTVKLLIYSASFLYSGVPSRFSGSGSGTDFTLTISSLQPEDFATYYCQQSYTTPATFGQGTKVEIKR | 3.43 | 0.00023 | 67000 | 3.88 | 0.00033 | 85000 | 0.06 | ~0.2 | ~0.07 | ~0.1 |  | 
Antibody A-1 (phage-displayed Fab clone) (Fab, V domains shown) VH: EVQLVESGGGLVQPGGSLRLSCAASGFTFSSYWIHWVRQAPGKGLEWVARINPPNGSAHYADSVKGRFTISADTSKNTAYLQMNSLRAEDTAVYYCARGSGFRWVMDYWGQGTLVTVSS VL: DIQMTQSPSSLSASVGDRVTITCRASQDVSTAVAWYQQKPDGTVKLLIYSASFLYSGVPSRFSGSGSGTDFTLTISSLQPEDFATYYCQQSYTTPATFGQGTKVEIKR |  |  |  |  |  |  |  |  |  |  | 0.8 | 0.6
Antibody A-2 (antibody, V domains shown, also called Antibody A-2-hIgG1) VH: EVQLVESGGGLVQPGGSLRLSCAASGFTFSSYWIHWVRQAPGKGLEWVARINPPNRSNQYADSVKGRFTISADTSKNTAYLQMNSLRAEDTAVYYCARGSGFRWVMDYWGQGTLVTVSS VL: DIQMTQSPSSLSASVGDRVTITCRASQDVSTAVAWYQQKPDGTVKLLIYSASFLYSGVPSRFSGSGSGTDFTLTISSLQPEDFATYYCQQFYTTPSTFGQGTKVEIKR | 2.53 | 0.00022 | 87000 | 3.09 | 0.00034 | 110000 | 0.04 | ~0.07 | ~0.05 | ~0.06 |  | 
Antibody A-2 (phage-displayed Fab clone) (Fab, V domains shown) VH: EVQLVESGGGLVQPGGSLRLSCAASGFTFSSYWIHWVRQAPGKGLEWVARINPPNRSNQYADSVKGRFTISADTSKNTAYLQMNSLRAEDTAVYYCARGSGFRWVMDYWGQGTLVTVSS VL: DIQMTQSPSSLSASVGDRVTITCRASQDVSTAVAWYQQKPDGTVKLLIYSASFLYSGVPSRFSGSGSGTDFTLTISSLQPEDFATYYCQQFYTTPSTFGQGTKVEIKR |  |  |  |  |  |  |  |  |  |  | 0.5 | 0.5
Antibody A-3 (phage-displayed Fab clone) (Fab, V domains shown) VH: EVQLVESGGGLVQPGGSLRLSCAASGFTFSSYWIHWVRQAPGKGLEWVARINPANGSTRYADSVKGRFTISADTSKNTAYLQMNSLRAEDTAVYYCARGSGFRWVMDYWGQGTLVTVSS VL: DIQMTQSPSSLSASVGDRVTITCRASQDVSTAVAWYQQKPDGTVKLLIYSASFLYSGVPSRFSGSGSGTDFTLTISSLQPEDFATYYCQQSFSTPATFGQGTKVEIK |  |  |  |  |  |  |  |  |  |  | 0.5 | 2.5
Antibody A-3 (antibody, V domains shown) VH: EVQLVESGGGLVQPGGSLRLSCAASGFTFSSYWIHWVRQAPGKGLEWVARINPANGSTRYADSVKGRFTISADTSKNTAYLQMNSLRAEDTAVYYCARGSGFRWVMDYWGQGTLVTVSS VL: DIQMTQSPSSLSASVGDRVTITCRASQDVSTAVAWYQQKPDGTVKLLIYSASFLYSGVPSRFSGSGSGTDFTLTISSLQPEDFATYYCQQSFSTPATFGQGTKVEIK | 5.88 | 0.0004 | 68000 | 13 | 0.0012 | 92000 |  |  |  |  |  | 
